Laboratory results taken from patent US20230068663A1 (University of Texas, published 2023).

T1: LAIR1 on reporter cells (UniProt Q6GTX8 22-165, limits assumed)
T1 sequence (looked up): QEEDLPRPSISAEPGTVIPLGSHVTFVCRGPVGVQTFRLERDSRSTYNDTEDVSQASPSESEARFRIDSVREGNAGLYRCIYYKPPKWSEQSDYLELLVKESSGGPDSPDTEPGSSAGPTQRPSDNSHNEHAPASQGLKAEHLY

B1: B2-19 (antibody, V domains shown)
VH: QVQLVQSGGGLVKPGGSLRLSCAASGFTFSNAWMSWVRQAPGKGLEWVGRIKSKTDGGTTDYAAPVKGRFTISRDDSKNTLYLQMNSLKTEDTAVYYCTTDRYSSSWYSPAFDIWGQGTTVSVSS
VL: QPVLTQPPSVSEAPRQRVTISCSGSSSNIGNNVVNWYQQLPGKAPKLLIYYDDLLPSGVSDRFSGSKSGTSASLAISGLQSEDEADYYCATWDDSLNGPVFGGGTKLTVL
notes: also called B2-19_HC; B2-19_LC
B2: B2-16 (antibody, V domains shown)
VH: QVQLVQSGAEVKKPGSSVKVSCKASGGTFSSYAISWVRQAPGQGLEWMGGIIPIFGTANYAQKFQGRVTITADESTSTAYMELSSLRSEDTAVYYCASGIIPDNPYGMDVWGQGTMVSVSS
VL: DIVMTQSPLSLPVTLGQPASISCTSSQSLVYSDGNTYLNWFHQRPGQSPRRLFYKVSNRASGVPDRFSGSGSGTDFTLKISRVEAEDLGVYYCMQGTHWPVTFGQGTRLEIK
notes: also called B2-16_HC; B2-16_LC
B3: B2-7 (antibody, V domains shown)
VH: EVQLVESGGGVVQPGRSLRLSCAASGFTISSYGMHWVRQAPGKGLEWVAVISYDGSNKYYADSVKGRFTISRDNSKNTLYLQMNSLRVEDTAVYYCAKDLLLRYFDWSPKYYYNGMDVWGQGTMVTVSS
VL: QSVLTQPPSVSVAPGKTARITCGGNNIGSKSVHWYQQKPGQAPVLVVYDDSDRPSGIPERFSGSNSGNTATLTISRVEAGDEADYYCQVWDSSSDHPGVFGTGTKVTVL
notes: also called B2-7_HC; B2-7_LC
B4: B2-15 (antibody, V domains shown)
VH: EVQLVQSGAEVKKSGASVKVSCKSSGYTFTNYGISWVRQAPGQGLEWMGWISGDAGDTKFAQKFQGRVTMTTDTSTTTTYMELRSLRSDDTAVYYCARDGEYIPMFRGFDNYYGLDVWGQGTLVSVSS
VL: QSVLTQPPSASATPGQRVTISCSGRNANIGSNPVNWYQQLPGTAPRLVMYSNNQRPSGVPDRFSGSKSGTSASLAISGLQSEDEADYYCEGWDDSLNGYVFGTGTKVTVL
notes: also called B-15; B2-15_HC

Assays:
[1] = target: T2, full length human LILRB2 stably expressed on HEK293 cells (human, UniProt Q8N423 22-597); assay: competition flow cytometry, inhibition of HLA-G-His binding to HEK293 cells expressing LILRB2
T2 construct: whole, on cells; also called HEK293_LILRB2
Procedure: FIG. 33. […] All incubations were performed for 30 minutes at 4° C. Data shown is averaged geometric mean of fluorescence intensity ± standard error of the mean (s.e.m.) from duplicate samples acquired in a flow cytometer (BD FACS Celesta).

LILRB2-His antigen = target: T3, LILRB2-His antigen (UniProt Q8N423 22-460, limits assumed); assay: indirect ELISA, coated LILRB2-His
T3 construct: Coated on ELISA plates; also used for phage panning; also called LILRB2 antigen; not shown: His tag
Procedure: ELISA binding EC of LILRB2 antibodies. The ELISA binding EC₅₀ of these 24 antibodies were measured by indirect ELISA. […] After incubation, HRP-conjugated goat anti-human Fc secondary antibody was incubated with the plates. The TMB substrate was added for color development and measurement of absorbance at 450 nm.

LILRA6 = target: T4, LILRA6; assay: flow cytometry, reporter cells
T4 construct: also called LILRA6 reporter cells
Procedure: (§1) FIG. 29. Binding of LILRB2 antibodies on reporter cell line expressing ectodomain of LILR family proteins on cell surface. Bound antibodies were detected with anti-human Fc-specific secondary antibody (2nd Ab) conjugated to AF647. […] All incubations were performed for 30 minutes at 4° C. Data shown is mean fluorescence intensity after sample acquisition in flow cytometer.

LILRB3 = target: T5, LILRB3; assay: flow cytometry, reporter cells
T5 construct: also called LILRB3 reporter cells; not shown: transmembrane/intracellular domains of PILRb, the display part of the chimeric reporter receptor
Procedure: as §1

LILRA4 = target: T6, LILRA4; assay: flow cytometry, reporter cells
T6 construct: also called LILRA4 reporter cells
Procedure: as §1

LILRA2 = target: T7, LILRA2; assay: flow cytometry, reporter cells
T7 construct: also called LILRA2 reporter cells; not shown: transmembrane/intracellular domains of PILRb, the display part of the chimeric reporter receptor
Procedure: as §1

LILRB1 = target: T8, LILRB1; assay: flow cytometry, reporter cells
T8 construct: also called LILRB1 reporter cells; not shown: transmembrane/intracellular domains of PILRb, the display part of the chimeric reporter receptor
Procedure: as §1

[2] = target: T9, LILRB2 chimeric receptor on LILRB2 reporter cells (extracellular domain of LILRB2 fused with … (UniProt Q8N423 22-460)); assay: flow cytometry, reporter cells
T9 construct: extracellular domain;domain: transmembrane/intracellular domains; associates with DAP12; also called LILRB2-expressing reporter cells
Procedure: as §1

LAIR1 on reporter cells = target: T1, LAIR1 on reporter cells; assay: flow cytometry, reporter cells
Procedure: as §1

LILRA3 = target: T10, LILRA3; assay: flow cytometry, reporter cells
T10 construct: also called LILRA3 reporter cells; not shown: transmembrane/intracellular domains of PILRb, the display part of the chimeric reporter receptor
Procedure: as §1

LILRB4 = target: T11, LILRB4; assay: flow cytometry, reporter cells
T11 construct: also called LILRB4 reporter cells; not shown: transmembrane/intracellular domains of PILRb, the display part of the chimeric reporter receptor
Procedure: as §1

LILRB5 = target: T12, LILRB5; assay: flow cytometry, reporter cells
T12 construct: also called LILRB5 reporter cells; not shown: transmembrane/intracellular domains of PILRb, the display part of the chimeric reporter receptor
Procedure: as §1

LILRA5 = target: T13, LILRA5; assay: flow cytometry, reporter cells
T13 construct: also called LILRA5 reporter cells
Procedure: as §1

[3] = target: T14, LILRA1 on reporter cells (extracellular domain) (UniProt O75019 17-461, limits assumed); assay: flow cytometry, reporter cells
T14 construct: extracellular domain
Procedure: as §1

[4] = target: T9, LILRB2 chimeric receptor on LILRB2 …; assay: flow cytometry on LILRB2 reporter cells, APC anti-human IgG
Description: (§2) FIGS. 1A-C. Screening specific monoclonal antibodies for LILRB2. […] Binding of monoclonal antibodies was screened using flow cytometer on LILRB2 reporter cells. Bound antibodies were detected with Allophycocyanin (APC)-labeled goat anti-human IgG secondary antibody. (FIG. 1B) Quantification of binding ability of monoclonal antibodies to LILRB2 reporter cells.
(§3) Screening specific monoclonal antibodies for LILRB2. The inventors employed a stable reporter cell system to detect the binding ability of selected monoclonal antibodies to LILRB2. In this chimeric receptor reporter system, the extracellular domain (ECD) of LILRB2 is fused with transmembrane/intracellular domains of PILRb that associates with the adaptor protein DAP12 containing an immunoreceptor tyrosine-based activation motif. 27 monoclonal antibodies were screened. The LILRB2 reporter cells were incubated with selected monoclonal antibody, then labeled with (APC) goat anti-human IgG secondary antibody. […] The inventors generated LILRBAs and LILRBs reporters stably transduced with each receptor's extracellular domain (ECD).

[5] = target: T9, LILRB2 chimeric receptor on LILRB2 …; assay: flow cytometry, LILRB2 reporter cells
Description: as §2, §3

[6] = target: T2, full length human LILRB2 stably …; assay: competition flow cytometry, inhibition of SEMA4A-hFc-AF647 binding to HEK293_LILRB2 cells
Procedure: FIG. 34. […] Incubation was performed for 30 minutes at 4° C. Data shown is averaged geometric mean of fluorescence intensity ± standard error of the mean (s.e.m.) from duplicate samples acquired in a flow cytometer (BD FACS Celesta).

T7 sequence (chain, as listed by the source limits assumed): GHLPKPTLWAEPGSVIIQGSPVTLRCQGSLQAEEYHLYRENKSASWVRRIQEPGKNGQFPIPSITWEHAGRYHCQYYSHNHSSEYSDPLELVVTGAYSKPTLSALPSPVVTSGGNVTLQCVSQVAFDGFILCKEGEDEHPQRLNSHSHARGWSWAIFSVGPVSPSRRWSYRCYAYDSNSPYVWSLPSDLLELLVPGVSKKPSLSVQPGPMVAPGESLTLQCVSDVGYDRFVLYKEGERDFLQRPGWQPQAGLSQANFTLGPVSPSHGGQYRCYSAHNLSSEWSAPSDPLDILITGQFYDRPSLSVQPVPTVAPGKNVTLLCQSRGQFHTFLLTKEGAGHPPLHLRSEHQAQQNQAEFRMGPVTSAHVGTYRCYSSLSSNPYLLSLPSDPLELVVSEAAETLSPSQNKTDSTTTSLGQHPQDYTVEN
T10 sequence (chain, as listed by the source limits assumed): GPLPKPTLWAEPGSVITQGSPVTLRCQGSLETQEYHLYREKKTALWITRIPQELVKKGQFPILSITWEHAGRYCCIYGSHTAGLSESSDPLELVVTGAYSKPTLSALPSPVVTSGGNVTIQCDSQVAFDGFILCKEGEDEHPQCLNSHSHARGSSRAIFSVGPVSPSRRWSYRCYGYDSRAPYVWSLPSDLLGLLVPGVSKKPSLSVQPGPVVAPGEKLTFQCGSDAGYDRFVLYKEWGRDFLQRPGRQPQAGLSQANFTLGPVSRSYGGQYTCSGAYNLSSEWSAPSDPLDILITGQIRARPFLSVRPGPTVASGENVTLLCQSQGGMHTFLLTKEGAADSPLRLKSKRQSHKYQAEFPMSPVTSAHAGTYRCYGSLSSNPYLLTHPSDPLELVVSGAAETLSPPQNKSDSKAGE
T12 sequence (chain, as listed by the source limits assumed): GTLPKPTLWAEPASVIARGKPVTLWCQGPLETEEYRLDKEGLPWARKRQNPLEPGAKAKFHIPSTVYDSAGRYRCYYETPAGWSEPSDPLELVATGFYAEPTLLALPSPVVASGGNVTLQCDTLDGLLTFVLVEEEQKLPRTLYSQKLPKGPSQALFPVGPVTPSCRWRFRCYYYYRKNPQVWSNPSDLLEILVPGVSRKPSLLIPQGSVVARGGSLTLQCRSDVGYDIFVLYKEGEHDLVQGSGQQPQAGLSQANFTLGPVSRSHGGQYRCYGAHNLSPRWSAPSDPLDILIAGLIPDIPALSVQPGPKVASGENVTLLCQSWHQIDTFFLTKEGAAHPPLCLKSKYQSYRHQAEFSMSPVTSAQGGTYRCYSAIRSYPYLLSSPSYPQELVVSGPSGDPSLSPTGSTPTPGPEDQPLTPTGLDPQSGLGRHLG
T14 sequence (O75019 17-461 limits assumed): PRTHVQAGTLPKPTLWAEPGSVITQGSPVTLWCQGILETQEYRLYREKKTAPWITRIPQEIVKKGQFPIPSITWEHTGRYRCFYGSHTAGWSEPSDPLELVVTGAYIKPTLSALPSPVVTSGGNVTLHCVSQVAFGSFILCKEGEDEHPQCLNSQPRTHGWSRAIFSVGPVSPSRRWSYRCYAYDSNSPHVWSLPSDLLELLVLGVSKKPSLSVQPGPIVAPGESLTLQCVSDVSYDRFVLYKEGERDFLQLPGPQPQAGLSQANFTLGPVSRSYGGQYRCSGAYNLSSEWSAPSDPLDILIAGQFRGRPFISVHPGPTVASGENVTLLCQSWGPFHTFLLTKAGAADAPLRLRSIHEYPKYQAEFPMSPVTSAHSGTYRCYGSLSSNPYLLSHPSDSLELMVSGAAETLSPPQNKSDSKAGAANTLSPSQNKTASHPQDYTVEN
T4 sequence (chain, as listed by the source limits assumed): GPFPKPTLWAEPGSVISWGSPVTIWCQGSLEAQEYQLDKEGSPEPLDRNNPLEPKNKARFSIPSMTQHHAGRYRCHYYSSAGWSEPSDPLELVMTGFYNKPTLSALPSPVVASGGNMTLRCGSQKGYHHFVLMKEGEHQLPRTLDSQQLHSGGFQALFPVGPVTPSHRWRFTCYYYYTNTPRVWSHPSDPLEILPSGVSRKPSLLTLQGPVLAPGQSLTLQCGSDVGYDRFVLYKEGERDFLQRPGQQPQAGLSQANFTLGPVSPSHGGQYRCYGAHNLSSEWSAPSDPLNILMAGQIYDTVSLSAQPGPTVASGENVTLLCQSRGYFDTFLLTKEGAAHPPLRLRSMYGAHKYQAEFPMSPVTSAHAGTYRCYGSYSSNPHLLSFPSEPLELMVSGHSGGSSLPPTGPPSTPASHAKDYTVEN
T8 sequence (chain, as listed by the source limits assumed): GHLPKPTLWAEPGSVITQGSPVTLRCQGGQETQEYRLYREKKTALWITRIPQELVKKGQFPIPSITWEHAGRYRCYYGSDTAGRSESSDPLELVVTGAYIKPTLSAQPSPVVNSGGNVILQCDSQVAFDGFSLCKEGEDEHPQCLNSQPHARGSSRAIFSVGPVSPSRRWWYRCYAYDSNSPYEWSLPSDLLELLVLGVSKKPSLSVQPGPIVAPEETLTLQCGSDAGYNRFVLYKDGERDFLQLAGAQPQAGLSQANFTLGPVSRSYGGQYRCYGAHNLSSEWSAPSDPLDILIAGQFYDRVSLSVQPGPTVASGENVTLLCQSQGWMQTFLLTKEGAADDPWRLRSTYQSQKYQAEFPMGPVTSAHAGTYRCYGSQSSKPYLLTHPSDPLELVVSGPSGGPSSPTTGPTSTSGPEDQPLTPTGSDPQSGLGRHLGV
T13 sequence (chain, as listed by the source limits assumed): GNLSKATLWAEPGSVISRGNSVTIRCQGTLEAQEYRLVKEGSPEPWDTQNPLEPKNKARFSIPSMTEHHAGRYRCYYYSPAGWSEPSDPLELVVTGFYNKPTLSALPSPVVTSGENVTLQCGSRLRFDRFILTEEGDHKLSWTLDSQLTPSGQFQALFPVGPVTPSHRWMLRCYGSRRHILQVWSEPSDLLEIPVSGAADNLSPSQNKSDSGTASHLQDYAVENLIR
T6 sequence (chain, as listed by the source limits assumed): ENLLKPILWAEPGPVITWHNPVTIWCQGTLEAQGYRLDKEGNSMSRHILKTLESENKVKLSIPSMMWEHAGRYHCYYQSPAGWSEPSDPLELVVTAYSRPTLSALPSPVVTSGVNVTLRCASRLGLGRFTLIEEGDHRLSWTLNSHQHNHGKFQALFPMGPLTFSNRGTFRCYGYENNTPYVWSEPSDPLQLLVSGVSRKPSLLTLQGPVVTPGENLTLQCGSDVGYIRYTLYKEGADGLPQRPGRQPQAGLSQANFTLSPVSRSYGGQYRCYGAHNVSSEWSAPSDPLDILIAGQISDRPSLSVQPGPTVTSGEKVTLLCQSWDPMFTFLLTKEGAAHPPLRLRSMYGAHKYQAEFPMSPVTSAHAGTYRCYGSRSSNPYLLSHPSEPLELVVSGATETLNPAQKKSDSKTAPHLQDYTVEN

| Binder | IC50 [1] [µg/mL] | EC50 (LILRB2-His antigen) [nM] | MFI (LILRA6) | binding result (LILRA6) | MFI (LILRB3) | binding result (LILRB3) | MFI (LILRA4) | binding result (LILRA4) | MFI (LILRA2) | binding result (LILRA2) | MFI (LILRB1) | binding result (LILRB1) | MFI [2] | MFI (LAIR1 on reporter cells) | binding result (LAIR1 on reporter cells) | MFI (LILRA3) | binding result (LILRA3) | MFI (LILRB4) | binding result (LILRB4) | MFI (LILRB5) | further results |
| --- | --- | --- | --- | --- | --- | --- | --- | --- | --- | --- | --- | --- | --- | --- | --- | --- | --- | --- | --- | --- | --- |
| B1 | 0.583 | 3.82 | 11 | no binding | 9 | no binding | 10 | no binding | 10 | no binding | 10 | no binding | 1280 | 22 | no binding | 10 | no binding | 14 | no binding | 11 | binding result (LILRB5): no binding; MFI (LILRA5): 11; binding result (LILRA5): no binding; MFI [3]: 11; binding result [3]: no binding; percent of LILRB2 reporter cells labeled [4]: > 95%; % of cells anti-hIgG APC+ [5]: 95.3%; IC50 [6]: 2.12 µg/mL |
| B2 | 0.915 | 9.97 | 12 | no binding | 10 | no binding | 10 | no binding | 10 | no binding | 10 | no binding | 940 | 24 | no binding | 10 | no binding | 14 | no binding | 11 | binding result (LILRB5): no binding; MFI (LILRA5): 12; binding result (LILRA5): no binding; MFI [3]: 12; binding result [3]: no binding; percent of LILRB2 reporter cells labeled [4]: > 95%; % of cells anti-hIgG APC+ [5]: 95%; IC50 [6]: 3.19 µg/mL |
| B3 | 0.507 | 82.9 | 11 | no binding | 11 | no binding | 10 | no binding | 10 | no binding | 10 | no binding | 1160 | 23 | no binding | 10 | no binding | 15 | no binding | 11 | binding result (LILRB5): no binding; MFI (LILRA5): 11; binding result (LILRA5): no binding; MFI [3]: 12; binding result [3]: no binding; percent of LILRB2 reporter cells labeled [4]: > 95%; % of cells anti-hIgG APC+ [5]: 94.2%; IC50 [6]: 2.66 µg/mL |
| B4 | 0.16 | 46.5 | 10 | no binding | 9 | no binding | 9 | no binding | 10 | no binding | 9 | no binding | 910 | 22 | no binding | 10 | no binding | 14 | no binding | 11 | binding result (LILRB5): no binding; MFI (LILRA5): 11; binding result (LILRA5): no binding; MFI [3]: 10; binding result [3]: no binding; percent of LILRB2 reporter cells labeled [4]: > 95%; % of cells anti-hIgG APC+ [5]: 94.3%; IC50 [6]: 0.482 µg/mL |
